From the DeepSol protein solubility set

Assay: soluble on expression in E. coli; label from the status in PepcDB or PDB records

| Sequence | soluble on expression in E. coli |
| --- | --- |
| MGEEILTERNQLSRQDASCFRSPRSPLGRTDDAFFELDDDDDLSSPSVPGSPVDPPSISVPLPPKSAPPCPTQPAPLTNGDLYPTILSNGTPIPNGRITPALSTVSVSLIHEARLQQSLSTPCNGSEEEMHNGQVRKESEYRRFKSEGSTAGASLPAAEKTHMDELSPVDQRSTSGTARFLIQQDSVVNPSTKMSNTEQVAMMHTLKTKLSKYQAMMDKAFEEIAKVEDANIIEGCTIVRKLMRKVWNTPKVSADLANALCDYLRDRDYFDKLIKMFISPNTAACDQVRMECGKVLEECTSSANLEYIVNKSYTKKIMIVAMKLNKTPDQQRLSLSLIGNLFKHSNAVSLSLIETDVIDHIILTFKRAPECPDILRHAALALANILLYTCFEGKKKIIQKKIPEWLFFLASQADDVTRYYACIAVCTIVSVKEFEPLVRKSDTMKLVEPFLQVHDPATFARDYHKYAQGNTKEWLERLLPMLQPSRRREARSVAAFHFTLEATIKKEQNKLDVFQEIGAIQALKEVASSPDEVAAKFASEALTVIGEEVPYKLAQQVPGWTCADVQYWVKKIGFEEYVEKFAKQMVDGDLLLQLTENDLKHDVGMISGLHRKRFLRELQTLKVAADYSSVDESNLDNFLMGLSPELSVYTYQMLTNGVNRSLLSSLTDEMMQNACGITNPIHRLKLTQAFETAKHPDDVEVAMLSKQIDVFISYRRSTGNQLASLIKVLLQLRGYRVFIDVDKLYAGKFDSSLLKNIQAAKHFILVLTPNSLDRLLNDDNCEDWVHKELKCAFEHQKNIIPIFDTAFEFPTKEDQIPNDIRMITKYNGVKWVHDYQDACMAKVVRFITGELNRTTPTTKEMPSISRKTTQQRWQTTNTVSRTGPSRSIGGPRMEPPTPTFFSVTPTGSQERATSTRRKIQPSASTTSDRN | not soluble |
| MGEETIAAIATGAGEGGIGIVRISGADALQVAERIFRPRRGRPLGCRRSHTVTYGWVVTPGGDRIDEALALVMRGPHSYTGEDVVELQCHGGQLAVRRVLEQALQAGARLAEPGEFTRRAFLNGRLDLSQAEAVVDLIRAKTDRAMAAAVAHLGGSLRQAVGRIRERLMEMMAHLEADIDFPELELEVQTREEVAAGCGWCLGEVERLLGGARTGRILREGLRAVLAGRPNVGKSSLLNRLVRENRAIVTPIPGTTRDVIAEWVELGGVPVQLFDTAGLRPTDDPVERIGVARTHEALAQAHLVLVVVDAAAGLGPEDREWISQLPQGAARVGVANKIDLNPAFELSALREALGGAPVVGVSAETGEGLDALEAEVARVAGAFDASEELLVNTRQAEAIRRARNHLRDAQATLESGLGDELVAIDLRAAWMALGEVTGETAGEELLDQIFSRFCIGK | soluble |
| MGERFYLYDDTVEAAVRFVSFVGERQRFDLALIETDRFYGKWLVLDLQSNRFAILGRDDLEEPGYIEHAYQLHEQDANDLRAFLEEYLS | not soluble |
| MGEVLHIEDALNEKGVYVSTTSGVSMYPMLRNRRDTIIVKPPTAPLKKYDVPLYRRGDDYVLHRIIGKDDRGYIICGDNCINKEYGITENQIIGVLVGFYRDGNEVNMEGVGYKLYSRAWVFLHPLICAFKKIKMKAGKVKRLWHSK | not soluble |
| MGFAPVTPAAVETYDPDVDHDDESNGLDGFRVRSKRSGKFSGGYSDSPREVGDGYGVRSRARSNMKMYGGFKSEFDSDHDSGSGFGLKRKYNGNPKVSADFDADSDDEIVLVPKATRLRTHGKPSSGDFSHGSGGGFPLKSFGDRNFASHGFKPKNFSKPEPNFSQDLDYDDEFDDDRAEREGFNPRIQSSRSSSRVNGYSRKDGSYPRNTGASNGYGSSSRFKHEQMNAAAEVESDPIDEVVSSVKMLTEMFVRVENSKMEMMREMEKSRMEMELKHCQMMLESQQQIIGAFAEALSEKKSTNARRPVS | not soluble |
| MGFFSGQFSNVVEWEEFREDMIFWKWHNREIKRGSKLIIRPGQDAIFLFNGRIEGIFKDEGDYDIESQIIPFLSTLQGFKFGFNSGMRAEVLFVNTKEFTAKWGTKSAINIPTPQLPGGIPIRANGTFTFKVNDYVKLIDRIAGVKDSFLVEDVRLRIMALLDQLMMKWIVQEGRDMFNLQSNSFAIADGLKTDLDMQIYDMGITVSQLTIMSFTYPEEIQQMIAKAASHTMIGDMGRYQQVSVLDGIAGGKGQGGSAAADMAGMAIGMQMANEMIKGVTSPQREQTQGRGSHAPQGGSEPGLIKPNFCPNCGQKTDGANFCSNCGQKLVLEHHHHHH | soluble |
| MGFFSRDIQTMEDLLLHGLRDIYYAEQQITKALPKMIEQATNRDLSQGLTSHLEETQKQIERLDQVFKKLGQKPSGVNCPAIDGLIKEADETAGEIADKTVLDAAIVANAQAVEHYEIARYGTLIAWAEELGHDDIVRFLTTNLNEEKAANTKLNTVALRKGVNRKAAS | soluble |
| MGFKCGIVGLPNVGKSTLFNALTKAGIEAANFPFCTIEPNTGVVPMPDPRLDQLAEIVKPQRTLPTTMEFVDIAGLVKGASKGEGLGNQFLTNIRETEAIGHVVRCFENDNIIHVSGKVNPADDIEVINTELALADLDTCERAIHRVQKKAKGGDKDAKAELAVLEKCLPQLENAGMLRALDLSAEEKAAIRYLSFLTLKPTMYIANVNEDGFENNPYLDQVREIAAKEGSVVVPVCAAVEADIAELDDEERDEFMQELGLEEPGLNRVIRAGYKLLNLQTYFTAGVKEVRAWTIPVGATAPQAAGKIHTDFEKGFIRAQTISFEDFITYKGEQGAKEAGKMRAEGKDYIVKDGDVMNFLFNV | soluble |
| MGFYQGPDNRKITGGLKGKHRDKRKYEIGNPPTFTTLSAEDIRIKDRTLGGNFKVRLKYTTTANVLDPATNTAKKVKILEILETPANKELARRGIIIRGAKIRTEAGLAVVTSRPGQDGVINAVLLKNESQRS | soluble |
| MGFYQGPDNRKITGGLKGKHRDKRKYEIGNPPTFTTLSAEDIRIKDRTLGGNFKVRLKYTTTANVLDPATNTAKKVKILEILETPANKELARRGIIIRGAKIRTEAGLAVVTSRPGQDGVINAVLLKNESQRSLEHHHHHH | not soluble |
| MGGFGVGKTTMVGSVSEIRPLTTEETMTQAGIGVDDNYGSASKTATTVAMDFGRISITDELVLYLFGTPGQERFWFLWNGLFEGALGAVVLVDTRRLEVSFDVMGRLEERGVPFVVAVNTFPDAPRYPVAELRTALDLPEEIPILDCDVRRRASSRDVLMTLMRLLHSLAMKGALTLEHHHHHH | not soluble |
| MGGIGRIGILGSGSWATALAKIILTSQPSINWFMRREEQAQGIKRTGRNPNYLRDAVFDPRKISFFTDSDLNSFFRASDVVVLVTPSPFIKSYLKRVRSSSMRDKLIINAIKGIVPDENVLVSEYLHDFCDVPNELIGVVSGPCHAEEVARERRSYLTVGCFDINKAKAMANVLRNDYVSCTTSQDVVGIEYASVLKNVYAIAAGICNGLQYGDNFQSVLMSNAIAEMNSFVNTVHLLEREITDSVYLGDLLVTAYSNYSRNRTFGNMIGKGYSVKSAQMEMEMIAEGYYGAKCVREVNKRYQVNMPIMNTVYEVLYEKRDAAEAITALTAHFK | not soluble |
| MGGLYVSNFYGIFYSSNSESSTTLVDFCKYNAEIVEQTIFLEFVEFSNESIIFLKNLYSKMVNNSNFNIKKKFFHRKNSVTVYSNFLNFSKNLVKKFGV | not soluble |
| MGGSHHHHHHGMASMTGGQQMGRTLYDDDDKDRWGSKIVVVGANHAGTACIKTMLTNYGDANEIVVFDQNSNISFLGSGMALWIGEQIAGPEGLFYSDKEELESLGAKVYMESPVQSIDYDAKTVTALVDGKNHVETYDKLIFATGSQPILPPIKGAEIKEGSLEFEATLENLQFVKLYQNSADVIAKLENKDIKRVAVVGAGYIGVELAEAFQRKGKEVVLIDVVDTCLAGYYDRDLTDLMAKNMEEHGIQLAFGETVKEVAGNGKVEKIITDKNEYDVDMVILAVGFRPNTTLGNGKIDLFRNGAFLVNKRQETSIPGVYAIGDCATIYDNATRDTNYIALASNAVRTGIVAAHNACGTDLEGIGVQGSNGISIYGLHMVSTGLTLEKAKRLGFDAAVTEYTDNQKPEFIEHGNFPVTIKIVYDKDSRRILGAQMAAREDVSMGIHMFSLAIQEGVTIEKLALTDIFFLPHFNKPYNYITMAALGAKD | soluble |
| MGGVTSKVNVDVVQEQVKKDPVVMYTKTSCTFCNRAKDLFSDVRVAYKEVNLDTLKASQPDDYLGIVNGLVYTTRQTSVPQIFVCGRFIGGYTELDALRNSGHLFEAIAQCTGENSPKE | not soluble |
| MGHAHSSSSNGSSQITANPHDEKTKEKVEKLFRQNNRTNRSRSLDNRTQEKLPNRPVGSSHSARFPKTRHIPVPLQGPRKSEEGPNGSISGLSRDDKRIIETCWFKCSQKQLRKCSCDMFWDILHTDEDILRLFRLDHVAPNRLKDNDYFKSHASNLALVLNLVVTNLQDNFDQAQDALQALGYQHLHLIDRTHFQTMYWDIFTDCFERNPPPSFKKGAEREVALKFHRF | not soluble |
| MGHHHHHHENLYFQSHLYFQSHMTDCEFGYIYRLAQDYLQCVLQIPQPGSGPSKTSRVLQNVAFSVQKEVEKNLKSCLDNVNVVSVDTARTLFNQVMEKEFEDGIINWGRIVTIFAFEGILIKKLLRQQIAPDVDTYKEISYFVAEFIMNNTGEWIRQNGGWENGFVKKFEPK | soluble |
| MGHHHHHHGGHMSLDEFDLIHSITPRTIHHSSVDVGIGDDAALYTAKHGVQEIVCVDTMVEDVHFKLHYSSPEDIGYKALAVNISDIAAMGGIPKFYLVSLAVPSKWTESEIKAMYEGMNELAKLYHMDLIGGDTVSTADKLVVTVTVIGEIEKGQACLRSLAKPNDIVFVTGEIGSSAAGLSLLLEETNPQNSSVETDYFIHRHKRPEPRVSVGRLCSIFKRAALNDVSDGLASELNEIAEASCVSIEIVESMLPIHSDLPKLHPNWKEWALFGGEDFELTGTVSNEEWEVLKQECAALHLPITKIGYVREKTKSKVILKTDQTSMILEKKGYNHFEGGS | soluble |
| MGHHHHHHGGHMSLPKQIDHEKRRKQIAEATWRVILERGMEGASARNIAKEAGLSLGALRHYFSTQDELLAFAMKLVQEKVTDRIKDIAVRDLLPKEKVLQILLEMVPTNEETIREMEVWFAFTAYARHKKDMFDASHDGIFSGMRNLIAYLDESDLLKQNADKDIEAERLYALVDGLALHAMLDPVRVNKDRIKRVIMQHVESICVEDTRETQKRHPEGGS | soluble |
| MGHHHHHHGGHMSLSDDNSHSSDTISNKKGFFSLLLSQLFHGEPKNRDELLALIRDSGQNDLIDEDTRDMLEGVMDIADQRVRDIMIPRSQMITLKRNQTLDECLDVIIESAHSRFPVISEDKDHIEGILMAKDLLPFMRSDAEAFSMDKVLRQAVVVPESKRVDRMLKEFRSQRYHMAIVIDEFGGVSGLVTIEDILELIVGEIEDEYDEEDDIDFRQLSRHTWTVRALASIEDFNEAFGTHFSDEEVDTIGGLVMQAFGHLPARGETIDIDGYQFKVAMADSRRIIQVHVKIPDDSPQPKLDEEGGS | soluble |
| MGHHHHHHHHHHSSGHIDDDDKHMTSLLSQFVSKTDFESYEDFQENFKILVPENFNFAYDVVDVYARDSPEKLAMIWCDDYGNEKIFTFKDLKYYSDKAANFFVKHGIGKGDYVMLTLKSRYDFWYCMLGLHKLGAIAVPATHMLKTRDIVYRIEKAGLKMIVCIAEDDVPEQVDEAHAECGDIPLKKAKVGGDVLEGWIDFRKELEESSPIFERPTGEVSTKNEDICLVYFSSGTAGFPKMVEHDNTYPLGHILTAKYWQNVEDDGLHYTVADSGWGKCVWGKLYGQWIAGCAVFVYDYDRFEAKNMLEKASKYGVTTFCAPPTIYRFLIKEDLSHYNFSTLKYAVVAGEPLNPEVFNRFLEFTGIKLMEGFGQTETVVTIATFPWMEPKPGSIGKPTPGYKIELMDRDGRLCEVGEEGEIVINTMEGKPVGLFVHYGKDPERTEETWHDGYYHTGDMAWMDEDGYLWFVGRADDIIKTSGYKVGPFEVESALIQHPAVLECAITGVPDPVRGQVIKATIVLTKDYTPSDSLKNELQDHVKNVTAPYKYPRIIEFVPELPKTISGKIRRVEIRDKDQSQ | soluble |
